The text below walks through data of patent US20250236663A1 (NEURACLE SCIENCE, published 2025).

Like-named read-outs stand apart in the source and are kept apart here.

Assay [1] concerns the target T1, FAM19A5 mutant M8 (human).
T1 construct: FAM19A5 with region 8 replaced by the consensus of FAM19A1-4; The entry already carries the changes
T1 chain: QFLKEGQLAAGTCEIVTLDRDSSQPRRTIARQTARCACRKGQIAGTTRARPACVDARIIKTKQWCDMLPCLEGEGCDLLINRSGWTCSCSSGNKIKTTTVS
The assay is described as follows: ELISA on phage-displayed FAM19A5 mutants; y axis without label. On the technique in general: An ELISA detects its analyte on a solid surface through an enzyme-linked reagent.

For assay [2], the target named is T2, FAM19A5-M5.
T2 construct: also called FAM19A5 mutant M5
T2 FAM19A5 mutant: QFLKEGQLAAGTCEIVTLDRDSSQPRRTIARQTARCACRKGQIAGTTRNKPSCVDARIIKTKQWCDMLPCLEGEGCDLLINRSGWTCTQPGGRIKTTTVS
The assay can be described thus: ELISA on phage-displayed FAM19A5 mutants; y axis without label; no blank in the panel.

Assay [3] deals with T3, FAM19A5-M4.
T3 construct: also called FAM19A5 mutant M4
T3 FAM19A5 mutant: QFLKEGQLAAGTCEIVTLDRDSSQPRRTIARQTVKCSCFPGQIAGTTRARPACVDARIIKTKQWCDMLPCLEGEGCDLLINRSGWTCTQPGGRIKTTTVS
The description is as above.

For assay [4], the target named is T4, FAM19A5 mutant M6 (human).
T4 construct: FAM19A5 with region 6 replaced by the consensus of FAM19A1-4; The entry already carries the changes
T4 chain: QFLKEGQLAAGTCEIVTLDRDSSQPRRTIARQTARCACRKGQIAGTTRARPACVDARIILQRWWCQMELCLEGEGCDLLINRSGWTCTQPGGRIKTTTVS
The description is as above.

For assay [5], the target named is T5, FAM19A5-M1.
T5 construct: also called FAM19A5 mutant M1
T5 FAM19A5 mutant: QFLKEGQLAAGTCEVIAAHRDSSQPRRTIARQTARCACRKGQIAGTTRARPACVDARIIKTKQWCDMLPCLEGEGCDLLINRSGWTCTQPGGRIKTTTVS
The description is as above.

Assay [6] addresses T6, FAM19A5 mutant M7 (human).
T6 construct: FAM19A5 with region 7 replaced by the consensus of FAM19A1-4; The entry already carries the changes
T6 chain: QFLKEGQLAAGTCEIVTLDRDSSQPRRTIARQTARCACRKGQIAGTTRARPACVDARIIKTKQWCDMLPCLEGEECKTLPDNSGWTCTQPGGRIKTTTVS
The description is as above.

Assay [7] has as its target T7, FAM19A5-M3.
T7 construct: also called FAM19A5 mutant M3
T7 FAM19A5 mutant: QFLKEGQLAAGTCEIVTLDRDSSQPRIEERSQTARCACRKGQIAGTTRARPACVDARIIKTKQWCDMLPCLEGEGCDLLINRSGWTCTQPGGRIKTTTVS
Described as above.

The target in assay [8] is T8, FAM19A5-M2.
T8 construct: also called FAM19A5 mutant M2
T8 FAM19A5 mutant: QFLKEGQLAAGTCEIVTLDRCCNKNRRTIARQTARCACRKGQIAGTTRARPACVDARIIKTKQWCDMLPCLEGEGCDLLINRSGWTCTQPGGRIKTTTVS
The description is as above.

Assay [9] deals with T4, FAM19A5 mutant M6. The assay is described as follows: ELISA on phage-displayed FAM19A5 mutants; y axis without label.
For assay [10], the target named is T1, FAM19A5 mutant M8. Described as above.
The target of assay [11] is T6, FAM19A5 mutant M7. The description is as above.
Assay [12] has as its target T2, FAM19A5-M5. The assay is described as follows: ELISA on phage-displayed FAM19A5 mutants; y axis without label; no blank in the panel, lowest bars about 0.05.
The target in assay [13] is T3, FAM19A5-M4. The description is as above.
In assay [14] the target is T5, FAM19A5-M1. The description is as above.
For assay [15], the target named is T7, FAM19A5-M3. The assay is described as above.
Assay [16] has as its target T8, FAM19A5-M2. Described as above.
Assay [17] deals with T4, FAM19A5 mutant M6. The assay can be described thus: ELISA on phage-displayed FAM19A5 mutants; y axis without label.

B1: Anti-FAM19A5 (13F7) (antibody, V domains shown)
VH: QVQLQEWGAGLLKPSETLSLTCAINAESFNGYSWTWIRQTPGKGLEWIGEISHFGSANYNPSLKSRATISADKSKNQFSLKLTSVTAVDTAVYYCARALRGTYSRFYYGMDVWGQGTTVTVSS
VL: DIVMTQTPLSLPVAPGEPASISCRSSQSLLHSNGYNYLDWYVQKPGQPPQLLIYLGSNRASGVPDRFSGSGSGTDFTLKISRVEAEDVGVYYCMQARQTPLTFGGGTKVEIK
notes: Only variable domains are tied to the name
Take B1: the binding result in assay [1] was “no binding”; in assay [2], “binds”; in assay [3] it was “binds”; in assay [4] it was “binds”; in [5], “binds”; in assay [6] it was “binds”. In addition, the binding result in assay [7] and in assay [8] was “binds” in each case.

B2: Anti-FAM19A5 (P2-A03) (antibody, V domains shown)
VH: QSVEESGGRLVTPGTPLTLTCTVSGFSLNNYDMSWVRQAPGKGLEYIGFMDTDGSAYYATWAKGRFTISRTSTTVDLKMTSPTTEDTATYFCARRGSSYYGGIDIWGPGTPVTVSL
VL: ELDLTQTPASVSEPVGGTVTIKCQASQSIGGNLAWYQQKPGQPPKLLIYRASTLASGVPSRFKGSGSGTDFTLTISDLECADAATYYCQSPAYDPAAYVGNAFGGGTELEIL
notes: as for B1
For B2, the binding result in assay [9] is “no binding”; in assay [10], “no binding”; in assay [11], “no binding”; in assay [12], “binds”; in [13], “binds”; in assay [14], “binds”. The binding result in assay [15] and in assay [16] was “binds” each time.

B3: Anti-FAM19A5 (13B4) (antibody, V domains shown)
VH: QVQLQESGPGLVKPSGTLSLNCAVSGGSISSSNWWSWVRQPPGKGLEWIGEIYHGGTTNYNPSLKGRVTMSVDKTKNQFSLRLSSVTAVDTAVYYCARWQLVGGLDVWGQGTTVTVSS
VL: SYELTQPLSVSVSPGQTASITCSGDKLGNVYASWYQQKPGQSPTLVIYQDNKRPSGIPERFSGSNSGKTATLTISGTQALDEADYYCQAWDSSTAVFGGGTKLTVL
notes: as for B1
As for B3, the binding result in assay [17] is reported as “no binding”; in assay [1], “no binding”; in assay [2], “binds”; in assay [3] it was “binds”; in [5], “binds”; in assay [6], “binds”. Moreover, the binding result in assay [7] and in assay [8] was “binds” in each case.
